Test results from patent publication US20160185837A1 (Medimmune Limited, priority 2013, published 2016).
Like-named read-outs stand apart in the source and are kept apart here.

How the values were obtained:
Type in all cases: cell-based
[1] = target: T1, rat GLP-1 receptor (rGLP-1r) (Rattus norvegicus, UniProt P32301); assay: BSA-cAMP assay, cells expressing rat GLP-1 receptor; settings: BSA-cAMP assay, read-out: rGLP1r cAMP activity EC50
T1 construct: expressed in transfected cells; host or cells: HEK293s or CHO cells
T1 sequence (P32301 22-463): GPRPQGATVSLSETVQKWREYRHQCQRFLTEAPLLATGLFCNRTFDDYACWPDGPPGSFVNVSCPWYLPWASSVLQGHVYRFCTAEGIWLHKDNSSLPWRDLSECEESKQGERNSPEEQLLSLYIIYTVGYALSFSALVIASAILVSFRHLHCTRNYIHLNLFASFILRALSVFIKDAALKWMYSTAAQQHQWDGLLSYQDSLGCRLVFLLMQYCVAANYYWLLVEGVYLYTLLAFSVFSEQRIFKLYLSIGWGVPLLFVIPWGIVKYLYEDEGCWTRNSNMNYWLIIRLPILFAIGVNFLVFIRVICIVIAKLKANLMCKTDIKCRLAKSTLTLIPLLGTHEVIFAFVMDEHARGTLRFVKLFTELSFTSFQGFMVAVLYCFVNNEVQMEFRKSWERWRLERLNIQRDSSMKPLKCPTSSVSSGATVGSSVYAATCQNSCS
Summary of the method: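 EC50 is the midpoint of an unconstrained 4-parameter logistic fit to HTRF cAMP data, expressed as percent of maximal native agonist response, from two separate occasions. Rodent (mouse, rat) GLP-1R- or GIPR-expressing cells were incubated with compound 30 min at room temperature in 0.1% BSA medium, in duplicate.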

[2] = target: T2, human GIP receptor (hGIPr) (Homo sapiens, UniProt P48546); assay: BSA-cAMP assay, cells expressing human GIP receptor; settings: BSA-cAMP assay, read-out: hGIPr cAMP activity EC50
T2 construct: expressed in transfected cells
T2 sequence (P48546 22-466): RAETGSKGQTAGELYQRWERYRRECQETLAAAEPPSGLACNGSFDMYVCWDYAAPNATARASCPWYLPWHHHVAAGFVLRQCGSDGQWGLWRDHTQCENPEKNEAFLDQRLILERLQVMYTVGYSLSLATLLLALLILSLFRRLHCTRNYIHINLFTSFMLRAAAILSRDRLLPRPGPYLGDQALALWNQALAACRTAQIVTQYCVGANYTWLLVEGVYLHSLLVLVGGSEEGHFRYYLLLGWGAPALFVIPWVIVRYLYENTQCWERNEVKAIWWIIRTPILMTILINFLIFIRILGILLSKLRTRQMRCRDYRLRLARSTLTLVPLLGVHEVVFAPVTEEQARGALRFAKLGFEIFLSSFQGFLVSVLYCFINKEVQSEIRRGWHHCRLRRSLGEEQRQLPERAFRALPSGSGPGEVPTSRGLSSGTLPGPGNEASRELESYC
Summary of the method: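 EC50 came from an unconstrained 4-parameter logistic fit of HTRF cAMP data expressed as percent of maximal native agonist activation, tested on two occasions. Thawed receptor-expressing cells (hGLP-1r, hGIPr at 0.5×10^5 cells/ml) treated 30 min at room temperature in 0.1% BSA-containing medium; two distinct hGIPr lines.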

hGIPr (C3) = target: T3, hGIPr (C3) (Homo sapiens, UniProt P48546); assay: BSA-cAMP assay, second human GIPr cell line hGIPr (C3); settings: Batch 1, second hGIPr cell line, read-out: hGIPr (C3) cAMP activity EC50
T3 construct: expressed in transfected cells
T3 sequence (P48546 22-466): T2 sequence (P48546 22-466)
Description: For human GIPr, two different lines were used, shown as “hGIPr” and “hGIPr (C3)” in Table 11. Peptide activation of these various receptors results in downstream production of cAMP second messenger that can be measured in a functional activity assay.
One basic cAMP assays was performed, differing in the medium used for the assay, the “BSA-cAMP assay”:
BSA-based assay medium: 0.1% bovine serum albumin (BSA) in
Hanks Balanced Salt Solution (GIBCO or Sigma), containing 0.5 mM IBMX (Sigma #17018);
In certain aspects, the assay can also be carried out in medium supplemented with serum albumin that corresponds to the receptor being tested, e.g., human serum albumin for testing cAMP activity at hGIPr or hGLP-1r, rat serum albumin for testing cAMP activity at rGIPr or rGLP-1r, and so on. […]
cAMP levels were measured using a commercially available cAMP dynamic 2 HTRF kit (Cisbio, Cat #62AM4PEJ), following the two step protocol as per manufacturer's recommendations. […] Plates were incubated at room temperature for one hour and then read on an Envision (Perkin Elmer) using excitation wavelength of 320 nm and emission wavelengths of 620 nm & 665 nm. Data was transformed to % Delta F as described in manufacturer's guidelines and then transformed to percent activation of maximal native agonist response and analysed by 4-parameter logistic fit to determine EC50 values. […]

EC50 ([1]; Batch 1) [nM] | EC50 ([2]; Batch 1) [nM] | EC50 ([2]; Batch 2) [nM] | EC50 ([1]; Batch 2) [nM] | EC50 (hGIPr (C3)) [nM] | Substance
130 | 9.6 | 44 | – | – | IP320 (YSEGTFTSDYAAAAEAAAAAAFAAWLAAAAGGGGGSGGGGSGGGGSGGGGSACPPC)
0.057 | 0.0093 | – | 0.01 | – | IP396 (YSEGTFTSDYSKLLERQAIDEFIAWLLKGGGGGGGSGGGGSGGGGSGGGGSACPPC)
– | – | – | – | 1.3 | IP412: Fc fusion, IgG1-TM, SEQ ID NO:387; agonist peptide YSEGTFTSDYSKLLEEEANRLFIEWLLAGG (YSEGTFTSDYSKLLEEEANRLFIEWLLAGGGGGGSGGGGSGGGGSGGGGSATHTCPPC)
